{"source": "patent US20140235820A1", "about": "“METHODS AND COMPOSITIONS FOR MODULATING THE Wnt PATHWAY” (Genentech, Inc., priority 2010, published 2014)", "key": {"LRP6 E1E2": {"target": "T1, LRP6 E1E2 (Homo sapiens, UniProt O75581)", "T1 construct": "construct E1E2-amino acids A20-E631 of LPR6; made in house; host or cells: Tni insect cells (baculovirus, secreted)", "T1 sequence (O75581 20-631)": "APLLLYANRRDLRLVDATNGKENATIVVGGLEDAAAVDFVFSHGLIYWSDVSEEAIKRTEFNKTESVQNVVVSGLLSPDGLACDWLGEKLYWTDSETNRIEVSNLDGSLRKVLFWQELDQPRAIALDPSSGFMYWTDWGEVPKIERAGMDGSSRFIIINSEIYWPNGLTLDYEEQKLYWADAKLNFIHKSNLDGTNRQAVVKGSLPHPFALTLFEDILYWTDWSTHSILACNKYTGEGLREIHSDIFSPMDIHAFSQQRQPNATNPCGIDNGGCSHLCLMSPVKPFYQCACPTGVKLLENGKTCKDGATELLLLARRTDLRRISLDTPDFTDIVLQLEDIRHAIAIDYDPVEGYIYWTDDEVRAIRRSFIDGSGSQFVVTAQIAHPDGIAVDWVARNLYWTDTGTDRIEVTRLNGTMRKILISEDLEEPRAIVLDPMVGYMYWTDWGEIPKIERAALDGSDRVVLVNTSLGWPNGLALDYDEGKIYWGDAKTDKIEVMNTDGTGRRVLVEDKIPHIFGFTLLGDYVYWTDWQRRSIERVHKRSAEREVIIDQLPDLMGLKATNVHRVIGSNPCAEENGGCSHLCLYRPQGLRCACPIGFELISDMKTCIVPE", "assay": "Biolayer interferometry binding to LRP6 E1E2", "protocol": "(§1) Binding kinetics were measured by biolayer interferometry using an Octet Red instrument (ForteBio) as previously described (11). Streptavidin (SA) biosensors were loaded with biotinylated hLRP6 in 50 mMTris, pH 8, 300 mM NaCl, 5% (v/v) glycerol, and 0.05% (w/v) Triton X-100. The loaded biosensors were washed in the same buffer before carrying out association and dissociation measurements for the indicated times. The Kd of each interaction was determined using steady state-analysis through the Octet Red software v6.3. Each reported value represents an average of three or more experiments at different concentrations, with a fitted experimental curve for which the square of the correlation coefficient (R^2) is above 0.96.\nThe interaction of the different Dkks and sclerostin with various domains of LRP6 was measured using a biolayer interferometry assay (11). Purified receptors contained individual β-propeller-EGF-like units (E1, E2, or E4), two β-propellers (E1E2 or E3E4), or four β-propellers (E1E4))—as follows:\nHuman LRP6: construct E1E4-amino acids A20-Q1253 of LPR6; construct E1E2-amino acids A20-E631 of LPR6; construct E3E4 amino acids E631-Q1253 of LPR6; construct E1-amino acids A20-D325 of LPR6; construct E2-amino acids […]-E631 of LPR6; construct E4-T933-Q1253. The individual LRP6 β-propeller E3 could not be expressed."}, "LRP6 E3E4": {"target": "T2, LRP6 E3E4 (Homo sapiens, UniProt O75581)", "T2 construct": "construct E3E4 amino acids E631-Q1253 of LPR6; made in house; host or cells: Tni insect cells (baculovirus, secreted)", "T2 sequence (O75581 631-1253)": "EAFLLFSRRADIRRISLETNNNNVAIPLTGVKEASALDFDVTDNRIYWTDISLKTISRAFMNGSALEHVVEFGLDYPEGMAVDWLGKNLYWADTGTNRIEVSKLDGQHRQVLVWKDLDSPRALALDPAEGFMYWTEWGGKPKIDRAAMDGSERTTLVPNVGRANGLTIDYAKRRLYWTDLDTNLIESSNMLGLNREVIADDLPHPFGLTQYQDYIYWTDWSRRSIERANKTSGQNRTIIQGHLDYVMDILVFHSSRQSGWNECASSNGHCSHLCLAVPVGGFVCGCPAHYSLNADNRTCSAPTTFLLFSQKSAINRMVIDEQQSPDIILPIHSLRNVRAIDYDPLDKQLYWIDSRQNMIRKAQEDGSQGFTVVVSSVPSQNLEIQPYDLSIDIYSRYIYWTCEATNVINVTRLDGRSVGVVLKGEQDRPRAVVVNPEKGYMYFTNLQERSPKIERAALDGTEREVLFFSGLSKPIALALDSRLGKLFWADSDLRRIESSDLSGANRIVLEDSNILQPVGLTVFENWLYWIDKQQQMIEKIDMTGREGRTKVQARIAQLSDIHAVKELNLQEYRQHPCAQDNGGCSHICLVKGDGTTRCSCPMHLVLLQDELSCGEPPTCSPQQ", "assay": "Biolayer interferometry binding to LRP6 E3E4", "procedure,_shortened": "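Biotinylated human LRP6 ectodomain constructs (β-propeller-EGF units, e.g. E2 D235–E631, E1E2 A20–E631, E3E4 E631–Q1253) were loaded on streptavidin sensors in pH 8 Tris, 300 mM NaCl, 5% glycerol, 0.05% Triton X-100, then exposed to Dkks or sclerostin. Kd came from steady-state analysis, averaging ≥3 concentrations (R²>0.96).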"}, "[1]": {"target": "T3, LRP6 E1E2 variants with LRP5 BMD substitutions (Homo sapiens, UniProt O75581, N185S)", "T3 construct": "construct E1E2-amino acids A20-E631 of LPR6; made in house; host or cells: insect cells (Tni, baculovirus)", "T3 sequence (O75581 20-631 N185S)": "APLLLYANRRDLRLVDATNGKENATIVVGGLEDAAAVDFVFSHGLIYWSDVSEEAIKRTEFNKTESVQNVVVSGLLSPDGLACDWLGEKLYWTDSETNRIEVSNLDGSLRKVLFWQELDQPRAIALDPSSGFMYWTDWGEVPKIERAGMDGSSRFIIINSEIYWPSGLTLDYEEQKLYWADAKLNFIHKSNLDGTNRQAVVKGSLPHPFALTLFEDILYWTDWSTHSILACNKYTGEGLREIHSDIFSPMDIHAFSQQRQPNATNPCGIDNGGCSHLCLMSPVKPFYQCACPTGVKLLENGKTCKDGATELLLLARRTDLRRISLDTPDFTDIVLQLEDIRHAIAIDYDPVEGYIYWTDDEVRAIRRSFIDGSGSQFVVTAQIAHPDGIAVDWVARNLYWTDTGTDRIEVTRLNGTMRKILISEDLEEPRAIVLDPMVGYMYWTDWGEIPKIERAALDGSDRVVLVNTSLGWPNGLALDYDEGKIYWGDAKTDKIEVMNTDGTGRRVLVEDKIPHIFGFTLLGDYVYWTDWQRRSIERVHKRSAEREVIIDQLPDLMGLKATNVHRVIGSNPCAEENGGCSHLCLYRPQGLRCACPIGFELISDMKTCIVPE", "assay": "Steady-state affinity for LRP6 E1E2 variants carrying LRP5 BMD substitutions", "assay_type": "binding", "details": "LRP6 Asn185 to Ser vs wild type LRP6 E1E2", "protocol": "FIG. 13. Introduction of LRP5 BMD substitutions into LRP6 E1E2 lowers affinity for Wnt inhibitors. The five substitutions characterized are indicated on the y-axis. Steady-state affinity measurements were made for Wnt9b, Dkk1, and sclerostin binding to each of the LRP6 variants.\nas §1\nCells transfected with LRP5 variants carrying BMD mutations show reduced binding to sclerostin and are less sensitive to sclerostin inhibition of Wnt10b or Wnt6 signaling (70). To further test the effects of the BMD substitutions, we introduced several of them into LRP6 E1E2, with the results shown in FIG. 13. LRP6 E1E2 Gly158Val could not be expressed in insect cells. […] Importantly, not only is the binding to sclerostin affected (70), but the binding of Dkk1 to its E1 interaction site is also impaired."}}, "note": "“Also recorded” adds a separate entry of the source.", "data": [{"molecule": "Dkk1: Dickkopf 1 protein, Wnt pathway inhibitor, expressed in insect cells (NSNAIKN)", "values": [{"measurement": "Kd", "setting": "LRP6 E1E2; steady state, read-out: affinity for LRP6 E1E2", "value": 22, "unit": "nM"}, {"measurement": "Kd", "setting": "LRP6 E3E4; steady state, read-out: affinity for LRP6 E3E4", "value": 51, "unit": "nM"}, {"measurement": "loss in affinity for LRP6 E1E2 Asn185Ser", "setting": "[1]", "value": 183, "unit": "fold"}]}, {"molecule": "sclerostin: Sclerostin protein, Wnt pathway inhibitor, expressed in insect cells (LPNAIGR)", "values": [{"measurement": "binding to LRP6 E1E2 (in words)", "setting": "LRP6 E1E2", "value": "binds"}, {"measurement": "binding to LRP6 E3E4 (in words)", "setting": "LRP6 E3E4", "value": "does not interact"}, {"measurement": "loss in affinity for LRP6 E1E2 Asn185Ser", "setting": "[1]", "value": 59, "unit": "fold"}]}, {"molecule": "Dkk1 Ile42Glu (ligand, human, UniProt O94907 32-266, looked up, also called Dkk1 I42E) TLNSVLNSNAEKNLPPPLGGAAGHPGSAVSAAPGILYPGGNKYQTIDNYQPYPCAEDEECGTDEYCASPTRGGDAGVQICLACRKRRKRCMRHAMCCPGNYCKNGICVSSDQNHFRGEIEETITESFGNDHSTLDGYSRRTTLSSKMYHTKGQEGSVCLRSSDCASGLCCARHFWSKICKPVLKEGQVCTKHRRKGSHGLEIFQRCYCGEGLSCRIQKDHHQASNSSRLHTCQRH", "values": [{"measurement": "binding to LRP6 E1E2 (in words)", "setting": "LRP6 E1E2", "value": "affect binding"}, {"measurement": "binding to LRP6 E3E4 (in words)", "setting": "LRP6 E3E4", "value": "not to E3E4"}]}, {"molecule": "Dkk1 K211E (ligand, human, UniProt O94907 32-266, looked up, also called Dkk1 Lys211Glu) TLNSVLNSNAIKNLPPPLGGAAGHPGSAVSAAPGILYPGGNKYQTIDNYQPYPCAEDEECGTDEYCASPTRGGDAGVQICLACRKRRKRCMRHAMCCPGNYCKNGICVSSDQNHFRGEIEETITESFGNDHSTLDGYSRRTTLSSKMYHTKGQEGSVCLRSSDCASGLCCARHFWSKICEPVLKEGQVCTKHRRKGSHGLEIFQRCYCGEGLSCRIQKDHHQASNSSRLHTCQRH", "values": [{"measurement": "binding to LRP6 E3E4 (in words)", "setting": "LRP6 E3E4", "value": "interfered with binding; also recorded: affect binding"}]}]}
